Stoichiometry N data for 1 substance are collected here from paper PMC7694997.

In the test the target is Mycoplasma penetrans methionyl-tRNA synthetase, full-length, M568A variant (Mycoplasma penetrans). Briefly: SEC-MALS; size exclusion chromatography with multiangle light scattering of the purified enzyme in solution; conditions not told in the main text. (In gel filtration, larger molecules generally elute earlier.)

In turn, “Mycoplasma penetrans methionyl-tRNA synthetase, full-length, M568A variant (enzyme)” came in with a stoichiometry N of 2.

By stoichiometry N is commonly meant a count of units in the complex or per binding partner.
